This data set in a line: soluble on expression in E. coli; label from the status in PepcDB or PDB records.
Consider “MGSDKIHHHHHHAPNEEGISVQKMTGFPEGEPGFSLGVSACYAGIYQGELLIAGGCNFPETPAAEGGKKKFYQGIYAADASADSVFVWRKVGQLPVAAAYGVSVSTPRGIVCVGGSNENGSLSTVYRLSLSDDKQAVIVDTLPSLPCTMDNMSGSVVDYTLFVAGGNVNGKPSNGLYCLNLGNPETGWQQLPDFPGAPRVQPVCVGQRKENETLLYLWGGFSGAFDGRSATLSTDGYCYSPSLQQWQPVSTPIGSDSVPVALGGGAGIALTDSLILCTGGVNKDIFLSALQREEMMKAAVTGGNQAAVDSLKSEAKTYMLHPAEWYRFNDRILIYNTRRDKWEEAVRSQDVARAGAALTTGQGQTFFNINGELKPGIRTPEIAKIMID”, for which the “soluble on expression in E. coli” value is listed as “not soluble”.

For the sequence “GHMIKGEQKRYSEMTKEELQQEIAMLTEKARKAEQMGMVNEYAVYERKIAMAKAYMLNPADFHPGEIYEIEGAPGEYFKVRYLKGVFAWGWRLKGNGEEEALPISLLRKPNLPQS”, the “soluble on expression in E. coli” value is on record as “soluble”.

Turning to “MTDKPTYEQTLRGNAIRAISACDLDEKVRLARETASRWFARALSVRSPLDPPLPERPGRPEKPELVPPRMLKKRSLNTEHGRIALMHALAHIELNAIDLALDIVARFAVKPIPRSFFDGWMKVADDEARHFTLLRNRLKSLGADYGDMPAHDGLWQSAHQTRNDLEARLAVVPLILEARGLDVTPSLLEKMIETGDHETAAILNIIYNDEKTHVAVGAKWFRFFCARNRIDPAARFRELVRANFRGELKPPFNELARAEAGLTPSFYRSLSPVSILEHHHHHH”, the “soluble on expression in E. coli” value was “not soluble”.

“MGHPETTKFHHLSTKVTISVPEEECYGSTNRTSFNGEDIEEVLEAILKSGMKLKMEKSNFGHAKIKFLGYIVLEEGIQTDPKTIKAIAKFPQPENVTDVRKFIGFALY”: the “soluble on expression in E. coli” value was “not soluble”.

On to “MSLSIIVQKYGGTSVGSVQRIEHVANRIIATAASGKKVVVVVSAMGKTTDELVGLASEITDEPRKREMDMLLATGEQVTIALLAMALHKRGQEATSLTGWQAGMITESHHGNARILEVERARMDELLDKVHVVIVAGFQGIDQQGEIMTLGRGGSDTSAVAIAAALKAERCEIYTDVTGVFTTDPRVVKQARKLQTISYDEMLEMANLGASVLHPRAVEFAKNYEIPLLVASSMVDEPGTMIEEEGTMEQNLLVRGIAFENDVTKVTVHGLPNEIHTLPTLFAHLSAAGINVDIIIQNQTDSGMAISFSITQSSLKETLARLEELKGELSFQGIDYEEELAKVSIVGSGMVSNPGVAAKMFEILAANDIAIKMVSTSEIKVSAVIDEELMVLAVEMLHEQFKLHEEEPAVAVKVEGHHHHHH”, for which the “soluble on expression in E. coli” value was “soluble”.

For “MISIKGTGRFLLDNYRIWQRRAFNRPIQLRKGYKVLAIETSCDDTCVSVLDRFSKSAAPNVLANLKDTLDSIDEGGIIPTKAHIHHQARIGPLTERALIESNAREGIDLICVTRGPGMPGSLSGGLDFAKGLAVAWNKPLIGVHHMLGHLLIPRMGTNGKVPQFPFVSLLVSGGHTTFVLSRAIDDHEILCDTIDIAVGDSLDKCGRELGFKGTMIAREMEKFINQDINDQDFALKLEMPSPLKNSASKRNMLSFSFSAFITALRTNLTKLGKTEIQELPEREIRSIAYQVQESVFDHIINKLKHVLKSQPEKFKNVREFVCSGGVSSNQRLRTKLETELGTLNSTSFFNFYYPPMDLCSDNSIMIGWAGIEIWESLRLVSDLDICPIRQWPLNDLLSVDGWRTDQL”, the “soluble on expression in E. coli” value is listed as “not soluble”.

On to “GSEFAIDPNEPTYCLCNQVSYGEMIGCDNEQCPIEWFHFSCVSLTYKPKGKWYCPKCRGDNE”, for which the “soluble on expression in E. coli” value is recorded as “soluble”.

With “SAEEKVKDEAMQIMGMFQILPRLVVFDLDYTLWPFYCECRSKREMPSMYPQAKGILSALKEKGIEMAIASRSPTSDIANTFLDKLNIKPMFVAKEIYSSWSHKTEHFQKIHTRTGVPFTAMLFFDDEDRNIKSVSKMGVTSILVGDGVTLGAFRQGLTEFTQNHNSIEKNKQVWRDKYSGKPTSSETDKD”, the “soluble on expression in E. coli” value is reported as “soluble”.

With “MAHHHHHHMFSRGAAATAMAKVSRLVSPRLRIIHRDYLTRRGGRTHQRCSAVAVDYTPTYFATYKSDPGQCPRLIDAEAVHGDEQAFWSARRDFYRGGASRSYYPAWDRQAQALIMLTREVPRIPQEAAFRLFTLGLKMMLLPRLVAGVELMLPSWVTMNAESVLNEGLEGKVAEADGDGKATGAAADAAALPSASSAGANEDSGSANAEKR”, the “soluble on expression in E. coli” value is listed as “soluble”.

For “GPGSMFLNNNMVDDARTVQLLEEIDVQLERWGKKYGLDPSNEKQKRIPTAGGGDIKPSASSQRSHDVPNVKFVNDRTNSKVGIVETAAVAAPQGFDPSALFDRIDMLEKKLKVAEEERMILSERLFAAERIVVEVVNAQKGLQDEWAALSTQSFSISHLDDDRRTIVDSGKTSKRDCAFTSYTTQSRQSTQSGNSSVAGLSAFVSPAKEDTSRSCLQSPVRNAGSSGSVLGGEEEEDVVGATERRLFALDDLAQRLAV”, the “soluble on expression in E. coli” value is on record as “not soluble”.

Turning to “MGSTSTPDSSTNRLQDKVAIITGGAGGIGETTAKLFVRYGAKVVIADIADDHGQKVCNNIGSPDVISFVHCDVTKDEDVRNLVDTTIAKHGKLDIMFGNVGVLSTTPYSILEAGNEDFKRVMDINVYGAFLVAKHAARVMIPAKKGSIVFTASISSFTAGEGVSHVYTATKHAVLGLTTSLCTELGEYGIRVNCVSPYIVASPLLTDVFGVDSSRVEELAHQAANLKGTLLRAEDVADAVAYLAGDESKYVSGLNLVIDGGYTRTNPAFPTALKHGLA”, the “soluble on expression in E. coli” value is “soluble”.

On to “MSPDFLVTHSGGFHADELLSSVILTRLFPQARLIRSRAPEWITPAPGRIIYDVGGAYDPAAGIFDHHQRGAPQRDDGQPYSSFGLIWKHYGREYLAASGLPDHHVEALHAAFDTGFVLPIDLTDNGALSPSGPLAGLMLPALLETLKPVFDEAEPAADDRAFHAALAIARSFVDAGIAQRAAKLRAEAIVYRAIGDAGQGRILELPRGMPFRPAIVKAGADHLLFVVHPREKDWCVTGIRRAEDGFELRADLPAAWAGLTNGELEAVCGIEGASFCHNGRFVAAAKTRDAALAMAELAVQEALSIGVLEHHHHHH”, for which the “soluble on expression in E. coli” value was “soluble”.

With “GPGSMEVKIGKDVALLTAHKTYRDDGEDMVKAVATYVPFMNYVAACESSGLVPSAFLVRNVRHIARRVVGVIMDVECNTPTGKIVQPVEMSDFSPAILLPVVIVETVRYALLLQRRCVAVGCGLTTEAFCGAKDSGDNITWQNHELLTSAGFDLRDVRKLGFGEYSVGNEGLPPYTLHTIKKGMSSEEFEQLQKISAGTADASLFAVRLEDVMSSVNDAKAGLAASVLLLES”, the “soluble on expression in E. coli” value is “soluble”.

Regarding “MAHHHHHHSLEIRAFSKYRKRALSLVRGKVLEIGVGTGKNLPYYPKDVEVIGIDFSRNMLKKAEERRRKLRLENVTLLYMDAQDLEFEDNTFDTIVSTFVFCTVPDPIKGLKEAYRVLKPGGRAIFLEHMKSESKLLNVPLYLMEPFIRTLLGTSLLRETQRNIERAGFKIEKVENLFYDIVRLIIATKDEG”, the “soluble on expression in E. coli” value was “soluble”.

On to “MSLSGTDIHTSDYYFLFEEKFRGSRELVKARLRRYIPYFKGCRRVLDIGCGRGEFLELCKEEGIESIGVDINEDMIKFCEGKFNVVKSDAIEYLKSLPDKYLDGVMISHFVEHLDPERLFELLSLCYSKMKYSSYIVIESPNPTSLYSLINFYIDPTHKKPVHPETLKFILEYLGFRDVKIEFFEECEELTKLAKIDSNTVSEEVIRVINENIEKLNRILFGPQDYAIIAKKEGHHHHHH”, for which the “soluble on expression in E. coli” value is “soluble”.

Regarding “MGSDKIHHHHHHMKILIVDDEYRKVEEIFNVLADAGISCAGVKHETTAQAARILLRRQDYDLLIIDLHLPAAIGGKPDNEGGITFLDMIRLDEKVKLPASVLFITGREELIESAYTKVIERGAILCQYHSDSDEWKKILIGRAKYDSQRLARDEQVDVVIVTALRNPELDAVLNLPYQWIQKRIKDDPLTYHYGKIPRIDSNISVVAVSPNRKGMPSSAAVASKLALMFKPKILLMVGICAGIRDKCSLGDIIVADPTWDWGSGKHGLDSNGSPVFHAAPRQVPLNSALSQVASDLANDESVMNGIRKGWSEEVPGGKLKVHIGPMASGASVIADDRSARLIAIQQHRELIAIEMEAYAVMAAAEYTSIPNLTAMIIKSVCDFADAEKNDTWQKYASYTSAAFADQLFRNSNISV”, the “soluble on expression in E. coli” value is “not soluble”.

With “MGHHHHHHSHLEGPDCCFKSTVAAKLSKELKYPIIKGSSFELAKSGNEKLFEHFNKLADEDNVIIDRFVYSNLVYAKKFKDYSILTERQLRFIEDKIKAKAKVVYLHADPSVIKKRLRVRGDEYIEGKDIDSILELYREVMSNAGLHTYSWDTGQWSSDEIAKDI”, the “soluble on expression in E. coli” value is “not soluble”.

Take “GSHMKISEFLHLALPEEQWLPTISGVLRQFAEEECYVYERPPCWYLGKGCQARLHINADGTQATFIDDAGEQKWAVDSIADCARRFMAHPQVKGRRVYGQVGFNFAAHARGIAFNAGEWPLLTLTVPREELIFEKGNVTVYADSADGCRRLCEWVKEASTTTQNAPLAVDTALNGEAYKQQVARAVAEIRRGEYVKVIVSRAIPLPSRIDMPATLLYGRQANTPVRSFMFRQEGREALGFSPELVMSVTGNKVVTEPLAGTRDRMGNPEHNKAKEAELLHDSKEVLEHILSVKEAIAELEAVCLPGSVVVEDLMSVRQRGSVQHLGSGVSGQLAENKDAWDAFTVLFPSITASGIPKNAALNAIMQIEKTPRELYSGAILLLDDTRFDAALVLRSVFQDSQRCWIQAGAGIIAQSTPERELTETREKLASIAPYLMV”: the “soluble on expression in E. coli” value is recorded as “soluble”.

On to “MAHHHHHHMQQRKTNKLFYPVAFLHFFLGEDNERRMFRRLSTSTLAAAAVRFYTPSESLKKLYTSDFDKTEFPLSIVPSDSVLFAKFLYKAAEPNNSFDAILKDFQTIAAASSSLPIFWERTAVVEDVAEFKKLSEPMFFTLVWMQKNGMLDLIPEVSEIYETYVNAKMKRIVAKIYVAPGKEGEVGEAKRVAQELHKEAKELDGYTLVFKTVVDRSIVTGFAVELAGQYVNRAEGHKSHAPAADEADYTTIPAPRLPKTVWEDNIETEVLCRYLESLAEYDAEEAKHGV”, for which the “soluble on expression in E. coli” value is given as “not soluble”.

Take “MGSDKIHHHHHHDNNVVVLNGSGRSGSNGYAFYKWLLINHPEFNVTLVEPWPSSHLKWETWQKIGAARYVITTHQPFKVRKHQINVQLWHGVPLKRMGIMANNTRYKDNKRNEKLWHKNADIVASSSDLYETLMSACMAIESKKYQKLGFPRLDLLSKPVISKKELLKDLFDQEDEQAAIGIYMPTFRYELEDKSIMQKIKEGNFFAFADFDGEKLNKELKKRHQYLIVKLHPYEMRLFDNFKSQYSNISFLNNDYLFDHNYDLYELLGDTDFLMTDFSSIYFDYLHLNKPIVFVTNFLKQYEKTRGLLMGPYSEITPGISVNSEQELINNLDHLDNQQIVNRRIYWLNLTNQVHGDSYCENVFKYMTQEYRG”: the “soluble on expression in E. coli” value is given as “not soluble”.

Take “RKRPLVLTADRGRGKSSALGIACAQLLQHKPLRILLTAPSINAVEPVYQHAQRLLTDAKQMKKDRLEVGYGYIQFIAPDELLSSLPECDLLLVDEAAAIPVPMLKQITEHYHRLVFSSTIHGYEGCGRGFTLKFIEWLQQQRPGMKTYHMQQPIRWSVDDKLEMWLYDAFILN”: the “soluble on expression in E. coli” value was “not soluble”.

Regarding “QVQLQQSGAELVKPGASVRMSCKASGYTFTNYNMYWVKQSPGQGLEWIGIFYPGNGDTSYNQKFKDKATLTADKSSNTAYMQLSSLTSEDSAVYYCARSGGSYRYDGGFDYWGQGTTVTVSS”, the “soluble on expression in E. coli” value is reported as “soluble”.

As to “MGSDKIHHHHHHMTQTTPQPDPSRLRDELVRLHGKASPEWDSLVRLDPRFVDAYLKFAGVPQRRNHLDDKTRAFIALAADACATQLYAPGVARHIERALSFGATREELIEVLELVSTIGIHTSNVGVPVLLEVLEEEGLRKGAPPLDERRQKLKAEFETNRGYWHPTWEGLLELDPDLFEAYVEFSSVPWRTGVLSPKIKEFMYCAFDASATHLYVPGLKLHIRNALRYGATAEELMELLEIVSVTGIHGAELGAPLLEAALKRSGAAAGEPHA”, the “soluble on expression in E. coli” value is “not soluble”.

The record behind these values is the DeepSol protein solubility set.
